B1: unnamed (parent)
chain: MPGFYEIVIKVPSDLDGHLPGISDSFVNWVAEKEWELPPDSDMDLNLIEQAPLTVAEKLQRDFLTEWRRVSKAPEALFFVQFEKGESYFHMHVLVETTGVKSMVLGRFLSQIREKLIQRIYRGIEPTLPNWFAVTKTRNGAGGGNKVVDESYIPNYLLPKTQPELQWAWTNMEQYLSACLNLTERKRLVAQHLTHVSQTQEQNKENQNPNSDAPVIRSKTSARYMELVGWLVDKGITSEKQWIQEDQASYISFNAASNSRSQIKAALDNAGKIMSLTKTAPDYLVGQQPVEDISSNRIYKILELNGYDPQYAASVFLGWATKKFGKRNTIWLFGPATTGKTNIAEAIAHTVPFYGCVNWTNENFPFNDCVDKMVIWWEEGKMTAKVVESAKAILGGSKVRVDQKCKSSAQIDPTPVIVTSNTNMCAVIDGNSTTFEHQQPLQDRMFKFELTRRLDHDFGKVTKQEVKDFFRWAKDHVVEVEHEFYVKKGGAKKRPAPSDADISEPKRVRESVAQPSTSDAEASINYADRLARGHSL

Variants of: B1
Test: sedimentation velocity (analytical ultracentrifugation), self-association
Details: with partner chain of the complex shown; parent: 1; read off a plot

| Variant | ratio to parent |
| --- | --- |
| MPGFYEIVIKVPSDLDGHLPGISDSFVNWVAEKEWELPPDSDMDLNLIEQAPLTVAEKLQRDFLTEWRRVSKAPEALFFVQFEKGESYFHMHVLVETTGVKSMVLGRFLSQIREKLIQRIYRGIEPTLPNWFAVTKTRNGAGGGNKVVDESYIPNYLLPKTQPELQWAWTNMEQYLSACLNLTERKRLVAQHLTHVSQTQEQNKENQNPNSDAPVIRSKTSARDMELVGWLVDKGITSEKQWIQEDQASYISFNAASNSRSQIKAALDNAGKIMSLTKTAPDYLVGQQPVEDISSNRIYKILELNGYDPQYAASVFLGWATKKFGKRNTIWLFGPATTGKTNIAEAIAHTVPFYGCVNWTNENFPFNDCVDKMVIWWEEGKMTAKVVESAKAILGGSKVRVDQKCKSSAQIDPTPVIVTSNTNMCAVIDGNSTTFEHQQPLQDRMFKFELTRRLDHDFGKVTKQEVKDFFRWAKDHVVEVEHEFYVKKGGAKKRPAPSDADISEPKRVRESVAQPSTSDAEASINYADRLARGHSL [chain 1 Y224D] | 0.1 |
| MPGFYEIVIKVPSDLDGHLPGISDSFVNWVAEKEWELPPDSDMDLNLIEQAPLTVAEKLQRDFLTEWRRVSKAPEALFFVQFEKGESYFHMHVLVETTGVKSMVLGRFLSQIREKLIQRIYRGIEPTLPNWFAVTKTRNGAGGGNKVVDESYIPNYLLPKTQPELQWAWTNMEQYLSACLNLTERKRLVAQHLTHVSQTQEQNKENQNPNSDAPVIRSKTSARFMELVGWLVDKGITSEKQWIQEDQASYISFNAASNSRSQIKAALDNAGKIMSLTKTAPDYLVGQQPVEDISSNRIYKILELNGYDPQYAASVFLGWATKKFGKRNTIWLFGPATTGKTNIAEAIAHTVPFYGCVNWTNENFPFNDCVDKMVIWWEEGKMTAKVVESAKAILGGSKVRVDQKCKSSAQIDPTPVIVTSNTNMCAVIDGNSTTFEHQQPLQDRMFKFELTRRLDHDFGKVTKQEVKDFFRWAKDHVVEVEHEFYVKKGGAKKRPAPSDADISEPKRVRESVAQPSTSDAEASINYADRLARGHSL [chain 1 Y224F] | 0.69 |

— article PMC4944284
